Results on three molecules are retold here after article PMC5836121 (2017).

A value given as a limit tells only on which side of the number the result lay.

The target in experiment [1] is 225-3 miniprotein (fluorescein (N-(5-fluoresceinyl)maleimide) in fluorescence polarisation; biotin-PEG2-maleimide where immobilised in SPR; unlabelled otherwise). In words: FP; GppNHp.
The target in experiment [2] is KRas(WT) (human, UniProt P01116 1-187, 15N-labelled in NMR; biotin on the yBBr tag (by Sfp) in SPR). Description: SPR; GppNHp. (Surface plasmon resonance follows binding to a sensor surface in real time, without labels.)

B1: RalA (natural protein)
chain: MAANKPKGQNSLALHKVIMVGSGGVGKSALTLQFMYDEFVEDYEPTKADSYRKKVVLDGEEVQIDILDTAGQEDYAAIRDNYFRSGEGFLCVFSITEMESFAATADFREQILRVKEDENVPFLLVGNKSDLEDKRQVSVEEAKNRAEQWNVNYVETSAKTRANVDKVFFDLMREIRARKMEDSKEKNGKKKRKSLAKRIRERCCIL
modifications: biotinylated in SPR; unlabelled in fluorescence polarisation
The Kd is the free concentration of one partner at which half of the binding sites on the other are occupied at equilibrium, for simple one-to-one binding. A lower Kd goes with tighter binding. Regarding B1, the Kd in experiment [1] was above 10 µM.

B2: 225-15a/b heterodimeric miniprotein (designed binder)
chain 1: SGPRRPRCPGDQASLEELHEYWARLWNYLYRVAH
chain 2: GGGPRRPRCPGDNASIKQLHAYWQRLYAYLAAVA
modifications: oxidized dimer (disulfide with the other chain) | oxidized dimer (disulfide with the other chain)
Regarding B2, the Kd in experiment [2] stood at 0.09 nM.

B3: Rab25 (natural protein)
chain: MGNGTEEDYNFVFKVVLIGESGVGKTNLLSRFTRNEFSHDSRTTIGVEFSTRTVMLGTAAVKAQIWDTAGLERYRAITSAYYRGAVGALLVFDLTKHQTYAVVERWLKELYDHAEATIVVMLVGNKSDLSQAREVPTEEARMFAENNGLLFLETSALDSTNVELAFETVLKEIFAKVSKQRQNSIRTNAITLGSAQAGQEPGPGEKRACCISL
modifications: biotinylated in SPR; unlabelled in fluorescence polarisation
With B3, in experiment [1], the Kd was above 10 µM.
